Assay results published in JP2013230152A.

Legend:
遺伝子型3aの単離物のE1E2 = experiment: cell-based or functional assay
[1] = molecular target: 遺伝子型5の単離物のE1E2(MAb AP33反応性); experiment: cell-based or functional assay
[2] = molecular target: H77 E1E2突然変異型G418A (Hepatitis C virus genotype 1a, strain H77) (UniProt P27958); experiment: GNA capture EIA, mutant E1E2 from HEK293T cells
[3] = molecular target: H77 E1E2突然変異型L413A (Hepatitis C virus genotype 1a, strain H77) (UniProt P27958); experiment: GNA capture EIA, mutant E1E2 from HEK293T cells
[4] = molecular target: H77 E1E2突然変異型N415A (Hepatitis C virus genotype 1a, strain H77) (UniProt P27958); experiment: GNA capture EIA, mutant E1E2 from HEK293T cells
[5] = molecular target: H77 E1E2突然変異型Q412A (Hepatitis C virus genotype 1a, strain H77) (UniProt P27958); experiment: GNA capture EIA, mutant E1E2 from HEK293T cells
[6] = molecular target: H77 E1E2突然変異型W420A (Hepatitis C virus genotype 1a, strain H77) (UniProt P27958); experiment: GNA capture EIA, mutant E1E2 from HEK293T cells
[7] = molecular target: 412〜423分枝ペプチド (Hepatitis C virus); experiment: antibody titration on the 412-423 branched peptide (Figure 10)

Substance: モノクローナル抗体AP33 (antibody)
- IC 50(HCV pp 中和) (遺伝子型3aの単離物のE1E2): 22 µg/mL
- IC 50(HCV pp 中和) [1]: 0.6 µg/mL
- decrease of binding compared with wild type [2]: > 75%
- decrease of binding compared with wild type [3]: > 75%
- decrease of binding compared with wild type [4]: > 75%
- increase of binding compared with wild type H77 [5]: 50%
- decrease of binding compared with wild type [6]: > 75%
- concentration for 50% binding, how much lower than that of MAb 3/11 [7]: > 10
